In patent EP4596582A1 (Sichuan Kelun-Biotech Biopharmaceutical Co., Ltd., dated 2025):
Read-outs that look alike come from different tables or passages of the source.

T1: monkey B7-H3-4Ig-His protein (monkey)
T1 chain: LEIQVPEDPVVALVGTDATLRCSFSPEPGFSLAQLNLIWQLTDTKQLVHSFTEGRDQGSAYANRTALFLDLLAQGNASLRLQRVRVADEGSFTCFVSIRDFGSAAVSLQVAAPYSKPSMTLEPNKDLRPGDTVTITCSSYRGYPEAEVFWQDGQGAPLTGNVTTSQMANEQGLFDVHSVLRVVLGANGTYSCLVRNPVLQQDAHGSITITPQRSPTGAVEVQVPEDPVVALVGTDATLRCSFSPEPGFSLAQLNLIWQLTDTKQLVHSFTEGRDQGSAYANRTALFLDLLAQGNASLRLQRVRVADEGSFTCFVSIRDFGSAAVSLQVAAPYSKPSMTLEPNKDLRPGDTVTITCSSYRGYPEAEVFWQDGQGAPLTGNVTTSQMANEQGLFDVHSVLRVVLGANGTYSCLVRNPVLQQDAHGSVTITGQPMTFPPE

T2: human B7-H3-4Ig-His protein (human, UniProt Q5ZPR3 29-466)
T2 construct: extracellular domain; Made in HEK293-EBNA cells
T2 sequence: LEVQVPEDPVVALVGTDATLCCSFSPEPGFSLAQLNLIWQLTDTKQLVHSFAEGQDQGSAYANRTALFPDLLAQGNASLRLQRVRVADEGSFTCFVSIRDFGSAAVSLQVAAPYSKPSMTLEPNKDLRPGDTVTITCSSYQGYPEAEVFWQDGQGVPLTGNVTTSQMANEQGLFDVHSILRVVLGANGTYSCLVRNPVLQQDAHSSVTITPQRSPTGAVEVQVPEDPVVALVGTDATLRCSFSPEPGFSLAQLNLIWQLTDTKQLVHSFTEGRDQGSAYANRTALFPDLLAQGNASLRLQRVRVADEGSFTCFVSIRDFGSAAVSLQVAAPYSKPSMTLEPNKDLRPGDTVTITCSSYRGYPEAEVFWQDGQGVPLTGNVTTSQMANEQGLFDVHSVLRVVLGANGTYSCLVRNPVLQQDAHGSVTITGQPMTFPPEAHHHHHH

T3: human B7-H3 on human tumor cells (MCF-7, HT29, NCI-N87, HCC1806, HCC827) (human, UniProt Q5ZPR3 29-534)
T3 construct: whole, on cells
T3 sequence (looked up): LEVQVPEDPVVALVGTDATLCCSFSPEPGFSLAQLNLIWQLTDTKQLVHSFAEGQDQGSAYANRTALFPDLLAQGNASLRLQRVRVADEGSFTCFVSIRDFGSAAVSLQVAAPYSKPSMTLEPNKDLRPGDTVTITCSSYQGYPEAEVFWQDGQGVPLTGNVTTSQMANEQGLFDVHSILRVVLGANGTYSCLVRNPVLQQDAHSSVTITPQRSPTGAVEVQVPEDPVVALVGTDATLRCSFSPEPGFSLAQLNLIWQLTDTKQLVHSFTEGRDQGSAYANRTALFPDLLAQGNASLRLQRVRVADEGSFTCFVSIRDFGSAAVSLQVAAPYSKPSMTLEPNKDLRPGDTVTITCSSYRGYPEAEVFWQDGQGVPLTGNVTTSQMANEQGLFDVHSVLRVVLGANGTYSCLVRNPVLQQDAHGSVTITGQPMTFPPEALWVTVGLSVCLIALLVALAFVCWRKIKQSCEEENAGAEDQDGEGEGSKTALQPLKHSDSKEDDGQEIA

B1: anti-human-B7-H3 chimeric antibody 20G11G6 (antibody, V domains shown)
VH: QVQLQESGPGLVKPSGTLSLTCAVSGGSNSSSNWWTWVRQSPGKGLEWIGEISPTGFTSYSPSLKSRVTISVDKSKTQFSLNLSSVTAADTAVYYCARDRLYFDFWGQGTLVTVSS
VL: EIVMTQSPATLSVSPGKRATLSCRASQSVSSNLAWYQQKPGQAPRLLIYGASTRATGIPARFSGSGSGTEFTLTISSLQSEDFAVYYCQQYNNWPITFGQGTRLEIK
notes: Purified from hybridoma of H2L2 transgenic mice: human variable regions with constant regions of rat origin
B2: anti-human-B7-H3 human antibody 2# (antibody, human IgG1, kappa, V domains shown)
VH: B1 VH
VL: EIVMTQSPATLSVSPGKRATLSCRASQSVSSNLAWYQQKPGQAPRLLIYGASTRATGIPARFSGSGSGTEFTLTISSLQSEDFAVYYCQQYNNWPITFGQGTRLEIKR
notes: also called 20G11G6/2#

Legend:
[1] = biological target: T1, monkey B7-H3-4Ig-His protein; experiment: ELISA, antigen coated at 1 ug/ml
[2] = biological target: T2, human B7-H3-4Ig-His protein; experiment: ELISA, antigen coated at 1 ug/ml
[3] = biological target: T3, human B7-H3 on human tumor cells …; experiment: flow cytometry on MCF-7 cells
[4] = biological target: T1, monkey B7-H3-4Ig-His protein; experiment: ELISA, antigen coated at 1 ug/ml
[5] = biological target: T2, human B7-H3-4Ig-His protein; experiment: ELISA, antigen coated at 1 ug/ml; remark: listed apart in the source

Binder	EC50 [1] [µg/mL]	EC50 [2] [µg/mL]	EC50 [3] [µg/mL]	EC50 [4] [µg/mL]	EC50 [5] [µg/mL]
B1	0.0213	0.0165	0.228		
B2				0.00394	0.00297
